Assay results taken from publication PMC4855144.

Legend:
[1] = target: GST-Cdc42 constitutively active (CA/Q61L), preloaded with GTPγS (UniProt P60953); assay: pull-down; Glutathione-Sepharose beads coated with GST alone or GST-GTPase fusions pre-loaded with GDP (DN) or GTPγS (CA), incubated with lysates of HEK293T cells expressing GFP-CRN7 WT or CRIB mutants; blot with GFP mAb K3-184-2 or anti-N-WASP; ImageJ quantification, input set at 100%
[2] = target: GST-Cdc42 constitutively active (CA/Q61L), preloaded with GTPγS (UniProt P60953); assay: GST pull-down, western blot quantified with ImageJ; settings: GST-Cdc42 CA on Glutathione-Sepharose beads pre-loaded with GTPγS; lysates from HEK293T cells; input set at 100%; 3 independent experiments; parent: est. 19; read off a plot
[3] = target: GST-Cdc42 dominant negative (DN/T17N), preloaded with GDP (UniProt P60953); assay: GST pull-down, western blot quantified with ImageJ; settings: GST-Cdc42 DN on Glutathione-Sepharose beads pre-loaded with GDP; lysates from HEK293T cells; input set at 100%; 3 independent experiments; parent: est. 60; read off a plot
Sequence of GST-Cdc42 dominant negative (DN/T17N), preloaded with GDP (P60953 whole entry T17N): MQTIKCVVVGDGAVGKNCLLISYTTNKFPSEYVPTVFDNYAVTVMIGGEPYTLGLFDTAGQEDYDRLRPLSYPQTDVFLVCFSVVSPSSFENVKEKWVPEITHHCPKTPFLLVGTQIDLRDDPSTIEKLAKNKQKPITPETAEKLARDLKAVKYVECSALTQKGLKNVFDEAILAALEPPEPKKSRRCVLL

Sequence of GST-Cdc42 constitutively active (CA/Q61L), preloaded with GTPγS (P60953 whole entry Q61L, the tested form may be a part): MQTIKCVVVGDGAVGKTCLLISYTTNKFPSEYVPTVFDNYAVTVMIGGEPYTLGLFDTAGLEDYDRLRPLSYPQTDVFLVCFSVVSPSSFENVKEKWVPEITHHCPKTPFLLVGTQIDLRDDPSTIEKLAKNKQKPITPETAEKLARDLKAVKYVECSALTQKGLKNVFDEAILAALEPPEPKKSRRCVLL
Sequence of GFP-CRN7 WT (human Coronin7, full length, GFP on its N-terminus) (from UniProt P57737) NT-CRIB S>A; P>A (… > …); residue numbers not printed (P57737 whole entry, change not shown): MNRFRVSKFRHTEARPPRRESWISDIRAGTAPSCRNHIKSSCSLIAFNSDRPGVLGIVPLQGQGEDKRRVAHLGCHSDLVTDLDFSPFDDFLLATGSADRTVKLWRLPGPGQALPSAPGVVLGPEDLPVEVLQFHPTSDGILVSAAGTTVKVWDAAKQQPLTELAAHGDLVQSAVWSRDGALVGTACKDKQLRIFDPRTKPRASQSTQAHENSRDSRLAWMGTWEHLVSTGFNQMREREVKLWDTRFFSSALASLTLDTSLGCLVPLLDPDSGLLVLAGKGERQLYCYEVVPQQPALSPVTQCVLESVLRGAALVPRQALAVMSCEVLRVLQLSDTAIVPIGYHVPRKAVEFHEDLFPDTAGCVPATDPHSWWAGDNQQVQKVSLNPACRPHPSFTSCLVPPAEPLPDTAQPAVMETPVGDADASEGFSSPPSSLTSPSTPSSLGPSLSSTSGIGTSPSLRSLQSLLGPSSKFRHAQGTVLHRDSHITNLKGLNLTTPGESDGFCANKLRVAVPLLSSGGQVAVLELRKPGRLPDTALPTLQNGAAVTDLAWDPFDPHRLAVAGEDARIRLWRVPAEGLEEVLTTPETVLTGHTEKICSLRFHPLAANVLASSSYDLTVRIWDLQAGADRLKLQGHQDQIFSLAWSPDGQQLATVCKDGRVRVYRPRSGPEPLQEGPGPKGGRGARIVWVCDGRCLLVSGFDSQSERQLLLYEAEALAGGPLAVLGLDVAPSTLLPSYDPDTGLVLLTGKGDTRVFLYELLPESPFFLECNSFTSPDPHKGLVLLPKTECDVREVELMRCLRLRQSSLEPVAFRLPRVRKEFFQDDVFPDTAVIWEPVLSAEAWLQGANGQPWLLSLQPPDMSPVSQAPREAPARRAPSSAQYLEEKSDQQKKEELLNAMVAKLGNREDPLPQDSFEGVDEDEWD
Sequence of GFP-CRN7 WT (human Coronin7, full length, GFP on its N-terminus) (from UniProt P57737) CT-CRIB L>A; T>A; P>A (… > …); residue numbers not printed (P57737 whole entry, change not shown): as above

Row | percent of input bound [1] | response [2] | response [3] | Substance
1 | 30 % of input |  |  | GFP-CRN7 WT (human Coronin7, full length, GFP on its N-terminus) (from UniProt P57737 1-925) (natural protein)
2 |  | 41 % of input | 57 % of input | GFP-CRN7 WT (human Coronin7, full length, GFP on its N-terminus) (from UniProt P57737) CT-CRIB L>A; T>A; P>A (… > …); residue numbers not printed
3 |  | 32 % of input | 67 % of input | GFP-CRN7 WT (human Coronin7, full length, GFP on its N-terminus) (from UniProt P57737) NT-CRIB S>A; P>A (… > …); residue numbers not printed
